Source: paper PMC8298602, “14-3-3-protein regulates Nedd4-2 by modulating interactions between HECT and WW domains” (Communications Biology, 2021)

B1: pNedd4-2^335–455: shorter Nedd4-2 variant missing both the C2 and the HECT domains, all three phosphorylation sites (protein)
chain: SSRLRSCSVTDAVAEQGHLPPPSAPAGRARSSTVTGGEEPTPSVAYVHTTPGLPSGWEERKDAKGRTYYVNHNNRTTTWTRPIMQLAEDGASGSATNSNNHLIEPQIRRPRSLSSPTVTLS
modifications: phosphoserine at 342, phosphothreonine at 367, phosphoserine at 448; left off: His6, N-terminal, cleaved | GB1 domain of protein G, N-terminal, cleaved
notes: shorter Nedd4-2 variant missing both the C2 and the HECT domains, all three phosphorylation sites
B2: Nedd4-2^186–975: N-terminally truncated human Nedd4-2, missing the C2 domain (protein)
chain: HQEELPPPPLPPGWEEKVDNLGRTYYVNHNNRTTQWHRPSLMDVSSESDNNIRQINQEAAHRRFRSRRHISEDLEPEPSEGGDVPEPWETISEEVNIAGDSLGLALPPPPASPGSRTSPQELSEELSRRLQITPDSNGEQFSSLIQREPSSRLRSCSVTDAVAEQGHLPPPSAPAGRARSSTVTGGEEPTPSVAYVHTTPGLPSGWEERKDAKGRTYYVNHNNRTTTWTRPIMQLAEDGASGSATNSNNHLIEPQIRRPRSLSSPTVTLSAPLEGAKDSPVRRAVKDTLSNPQSPQPSPYNSPKPQHKVTQSFLPPGWEMRIAPNGRPFFIDHNTKTTTWEDPRLKFPVHMRSKTSLNPNDLGPLPPGWEERIHLDGRTFYIDHNSKITQWEDPRLQNPAITGPAVPYSREFKQKYDYFRKKLKKPADIPNRFEMKLHRNNIFEESYRRIMSVKRPDVLKARLWIEFESEKGLDYGGVAREWFFLLSKEMFNPYYGLFEYSATDNYTLQINPNSGLCNEDHLSYFTFIGRVAGLAVFHGKLLDGFFIRPFYKMMLGKQITLNDMESVDSEYYNSLKWILENDPTELDLMFCIDEENFGQTYQVDLKPNGSEIMVTNENKREYIDLVIQWRFVNRVQKQMNAFLEGFTELLPIDLIKIFDENELELLMCGLGDVDVNDWRQHSIYKNGYCPNHPVIQWFWKAVLLMDAEKRIRLLQFVTGTSRVPMNGFAELYGSNGPQLFTIEQWGSPEKLPRAHTCFNRLDLPPYETFEDLREKLLMAVENAQGFEGVD
modifications: phosphoserine at 342, phosphothreonine at 367, phosphoserine at 448 (PKA in vitro, confirmed by LC-MS); left off: His6, C-terminal, kept
notes: N-terminally truncated human Nedd4-2, missing the C2 domain

Experiments:
[1] = SV-AUC continuous sedimentation coefficient distributions c(s); assay type: physicochemical
Experimental: (§1) Sedimentation velocity (SV) experiments were performed using a ProteomLab^TM XL-I, Beckman Coulter analytical ultracentrifuge. The samples were dialyzed against a buffer containing 20 mM Tris-HCl (pH 7.5), 150 mM NaCl, and 1 mM TCEP before analysis. The samples with the longer construct of Nedd4-2^186–975 were dialyzed against a buffer containing 50 mM Tris-HCl (pH 8.0), 500 mM NaCl, 1 mM TCEP and 0.01% (v/v) Tergitol NP-40 (Sigma). […] The buffer density, viscosity, and partial specific volume of all proteins were estimated using the program […]. All sedimentation profiles were collected with absorbance optics at 280 nm. The sedimentation coefficients c(s) distributions were calculated from raw data using the SEDFIT software package. The calculated distributions were integrated to establish the weight-average sedimentation coefficients corrected to 20 °C and the density of water, sw(20,w). The sw values were plotted as a function of Nedd4-2^355–455 or 14-3-3η concentration to construct sw isotherms. The resulting isotherms were fitted with a A + B ⇌ AB model, as implemented in the SEDPHAT software package with previously known sw values of each component. The parameters were verified, and the loading concentrations were corrected using global Lamm-equation modeling, also implemented in the SEDPHAT software[66]

[2] = system: all human 14-3-3 protein isoforms; experiment: native TBE-PAGE isoform binding specificity; settings: 12% TBE-PAGE, 128 pmol 14-3-3 and 64 pmol pNedd4-2^335–455
Experimental: In addition, we prepared pNedd4-2^335–455 to characterize 14-3-3 isoform binding specificity.
Supplementary Fig. S2. Characterization of the interaction between Nedd4-2 and 14-3-3 in solution. a Continuous sedimentation coefficient distributions (c(s)) of 10 μM pNedd4- […]
mixed at 1:2 (cyan) and 1:1 (green) molar ratios. The protein concentrations were 10 μM for 14335-455 335-455-3-3ε and 5 μM or 10 μM for pNedd4335-455 -2 . b Isoform binding specificity of pNedd4-2 .
Phosphorylated pNedd4-2 , 14-3-3 proteins and their complexes were separated by 12% TBE-PAGE to study the interaction of pNedd4-2335-455 with all seven human 14-3-3 isoforms (β, γ, ε, δ, ε, σ, and τ). The amounts of protein loaded on the native gel were 128 pmol of 14335-455 -3-3 and […]
(1 picture or pasted object on this page, not shown here)

[3] = SEC-SAXS structural parameters; assay type: physicochemical; settings: for Rg (Guinier approximation): 20 mM Tris-HCl pH 7.5, 150 mM NaCl, 1 mM TCEP, 3% glycerol
Experimental: SAXS data were collected on the European Molecular Biology Laboratory (EMBL) P12 beamline, at the storage ring PETRA III (Deutsches Elektronen Synchrotron (DESY), Hamburg, Germany). The SEC-SAXS measurements were conducted in a buffer containing 20 mM Tris-HCl (pH 7.5), 150 mM NaCl, 1 mM TCEP, 3% (w/v) glycerol using Superdex 200 Increase 5/150 GL column (GE Healthcare) at the flow rate 0.5 ml.min^−1 at 293.15 K.
The loading concentrations of the samples were 2.2 mg.ml^−1 for Nedd4-2^186–975, 2 mg.ml^−1 for 14-3-3η and 8.9 mg.ml^−1 for the Nedd4-2^186–975:14-3-3η complex (1:2 molar stoichiometry). The injection volume of the samples was 52 μl. Elution profiles with the corresponding frames were processed using ATSAS 3.0.2 software CHROMIXS[71]. ATSAS software PRIMUS and GNOM were used to determine the excluded volume of the hydrated particle (Vp), the radius of gyration (Rg) and maximum particle dimension (Dmax)[72],[73]. The molecular mass (MW) was determined using a methods described by Rambo et al.[74]. Scattering profiles, P(r) functions, normalized Kratky plots and Guinier approximations were visualized using GraphPad Prism version 8.0.1 for Windows (GraphPad Software, La Jolla California USA, www.graphpad.com). The program DAMMIF was used to calculate the ab inicio molecular envelopes. For the complex, 10 surfaces were generated in slow mode and averaged using DAMAVER[76]. The averaged surfaces were used as the final filtered model of the complex, which was superimposed to the structural model using the SUPCOMB program (EMBL, Hamburg, Germany)[77].

14-3-3η [4] = biological target: T1, 14-3-3η (Homo sapiens, UniProt Q04917); experiment: native TBE-PAGE complex formation with 14-3-3η; assay type: binding; settings: 12% native TBE-PAGE, 240 pmol 14-3-3η and 120 pmol Nedd4-2 variant
T1 sequence (Q04917 1-246): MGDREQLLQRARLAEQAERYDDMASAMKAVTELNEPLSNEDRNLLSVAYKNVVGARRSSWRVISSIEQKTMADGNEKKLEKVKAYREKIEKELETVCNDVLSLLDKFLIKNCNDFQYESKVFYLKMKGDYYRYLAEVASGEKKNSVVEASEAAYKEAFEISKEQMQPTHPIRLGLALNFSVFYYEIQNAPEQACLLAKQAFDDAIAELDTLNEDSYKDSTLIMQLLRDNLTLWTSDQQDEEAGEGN
Experimental: Based on our estimates, the KD value was lower than 50 nM, as further confirmed by global modeling. TEXT PRINTED IN THE PICTURE: (d) no label printed: KD < 50 nM
Fig. 3 Simultaneous phosphorylation of two 14-3-3 binding motifs pSer342 and pSer448 is required for tight complex formation between pNedd4-2^335–455 and 14-3-3η. a 12% Native TBE-PAGE showing the interaction between 14-3-3η (240 pmol) and Nedd^335–455 variants without (no pS) or with one, two or three phosphorylation sites (120 pmol); 14-3-3η protein alone was loaded on the penultimate lane. b–i Sedimentation velocity analytical ultracentrifugation analysis of the complexes between 14-3-3η and pNedd4-2^335–455 variants showing the sw isotherms of 14-3-3η and Nedd4-2 with all three phosphorylation sites pSer^342 + pThr^367 + pSer^448 (b), with no phosphorylation sites (c), with one phosphorylation site (pSer^342 (d), pThr^367 (e) and pSer^448 (f)), or with two phosphorylation sites (pSer^342 + pThr^367 (g), pSer^342 + pSer^448 (h) and pThr^367 + pSer^448 (i)). […] The c(s) distributions underlying the sw data points are shown in Supplementary Fig. S3.

14-3-3η [5] = biological target: T1, 14-3-3η; experiment: SV-AUC (sedimentation velocity analytical ultracentrifugation), sw isotherm binding analysis; settings: 300 nM pNedd4-2^186–975 with 0.06−6 μM 14-3-3η, A + B ⇌ AB (Langmuir) model, one pNedd4-2 per 14-3-3η dimer, 50 mM Tris-HCl pH 8.0, 500 mM NaCl, 1 mM TCEP, 0.01% Tergitol NP-40, 20 °C, read-out: apparent KD
Experimental: Solution properties of Nedd4-2^186–975 and its interactions with 14-3-3 were characterized by sedimentation velocity analytical ultracentrifugation (SV AUC).
as §1, with “The sw values were plotted as a function of Nedd4-2^355–455 or 14-3-3η concentration to construct sw isotherms.” left out

[6] = frames from the right side of the elution peak
[7] = frames from the top of the elution peak

Molecule | f/f0 ([1]; SV-AUC c(s) analysis) | weight-averaged sedimentation coefficient sw(20,w), unit not given ([1]; corrected to 20.0 °C and density of water) | complex formation on native TBE-PAGE, all isoforms [2] | Dmax [3, 6] | Rg (GNOM) [3, 6] | VP (Porod volume) [3, 6] | Rg (Guinier approximation) [3, 6] | Dmax [3, 7] | Rg (GNOM) [3, 7] | VP (Porod volume) [3, 7] | Rg (Guinier approximation) [3, 7] | maximum particle dimension Dmax ([3]; from P(r) functions) | complex formation on native TBE-PAGE (14-3-3η [4]) | Kd (14-3-3η [5])
B1 | 1.5 | 1.4 S | forms stable complexes |  |  |  |  |  |  |  |  |  |  | 
B2 |  |  |  | 16.9 nm | 4.54 ± 0.02 nm | 192 nm^3 | 4.39 ± 0.02 nm | 18.3 nm | 4.92 ± 0.01 nm | 218 nm^3 | 4.67 ± 0.01 nm | 169 Å | phosphorylation-dependent interaction | ~50 nM
